Source: IntAct's records for PubMed 31515488

Experiments:
zn446_human ZNF446 [1] = target: zn446_human ZNF446 (UniProt Q9NWS9)
aakb2_human PRKAB2 = aakb2_human PRKAB2 (UniProt O43741)
zbt24_human ZBTB24 = zbt24_human ZBTB24 (UniProt O43167)
zbt14_human ZBTB14 = target: T1, zbt14_human ZBTB14 (UniProt O43829)
T1 sequence: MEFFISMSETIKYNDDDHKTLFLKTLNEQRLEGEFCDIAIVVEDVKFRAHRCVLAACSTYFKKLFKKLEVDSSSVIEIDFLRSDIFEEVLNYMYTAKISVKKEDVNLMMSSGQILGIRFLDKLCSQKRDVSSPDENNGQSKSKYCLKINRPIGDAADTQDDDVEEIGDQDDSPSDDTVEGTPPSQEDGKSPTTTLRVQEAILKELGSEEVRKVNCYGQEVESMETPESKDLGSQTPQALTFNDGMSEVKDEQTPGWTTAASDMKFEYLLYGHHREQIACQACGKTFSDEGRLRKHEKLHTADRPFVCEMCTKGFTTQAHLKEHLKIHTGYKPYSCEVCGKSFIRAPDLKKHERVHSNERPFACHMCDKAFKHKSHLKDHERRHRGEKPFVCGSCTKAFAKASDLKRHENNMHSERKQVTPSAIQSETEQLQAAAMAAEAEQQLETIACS

cof2_human CFL2 = cof2_human CFL2 (UniProt Q9Y281)
dest_human DSTN = target: T2, dest_human DSTN (UniProt P60981)
T2 sequence: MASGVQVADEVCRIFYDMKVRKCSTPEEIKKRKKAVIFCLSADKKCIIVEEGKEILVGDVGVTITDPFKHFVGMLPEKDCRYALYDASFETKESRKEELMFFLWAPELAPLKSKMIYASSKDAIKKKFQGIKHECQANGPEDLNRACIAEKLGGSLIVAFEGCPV

ntaq1_human NTAQ1 = ntaq1_human NTAQ1 (UniProt Q96HA8)
zn446_human ZNF446 [2] = target: zn446_human ZNF446 (UniProt Q9NWS9); remark: listed apart in the source
trim1_human MID2 = trim1_human MID2 (UniProt Q9UJV3)
dzip3_human DZIP3 = dzip3_human DZIP3 (UniProt Q86Y13)
rbtn2_human LMO2 = rbtn2_human LMO2 (UniProt P25791)
tmm79_human TMEM79 = target: T3, tmm79_human TMEM79 (UniProt Q9BSE2)
T3 sequence: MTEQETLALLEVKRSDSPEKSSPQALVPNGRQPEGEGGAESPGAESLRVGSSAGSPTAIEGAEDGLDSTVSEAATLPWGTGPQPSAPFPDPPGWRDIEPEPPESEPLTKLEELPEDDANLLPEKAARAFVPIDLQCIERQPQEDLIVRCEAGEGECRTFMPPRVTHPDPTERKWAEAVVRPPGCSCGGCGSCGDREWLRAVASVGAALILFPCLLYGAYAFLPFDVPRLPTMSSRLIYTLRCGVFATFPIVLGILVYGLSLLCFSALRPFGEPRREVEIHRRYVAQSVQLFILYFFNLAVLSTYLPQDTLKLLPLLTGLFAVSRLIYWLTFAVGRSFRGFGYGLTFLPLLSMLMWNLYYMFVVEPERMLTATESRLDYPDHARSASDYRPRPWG

cxcl9_human CXCL9 = target: T4, cxcl9_human CXCL9 (UniProt Q07325)
T4 sequence: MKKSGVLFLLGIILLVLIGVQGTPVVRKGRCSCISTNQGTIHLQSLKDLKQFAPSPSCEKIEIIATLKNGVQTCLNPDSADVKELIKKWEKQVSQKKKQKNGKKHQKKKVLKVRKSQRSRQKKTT

hxb5_human HOXB5 = hxb5_human HOXB5 (UniProt P09067)
ctbp2_human CTBP2 = ctbp2_human CTBP2 (UniProt P56545)
cry2_human CRY2 = target: T5, cry2_human CRY2 (UniProt Q49AN0)
T5 sequence: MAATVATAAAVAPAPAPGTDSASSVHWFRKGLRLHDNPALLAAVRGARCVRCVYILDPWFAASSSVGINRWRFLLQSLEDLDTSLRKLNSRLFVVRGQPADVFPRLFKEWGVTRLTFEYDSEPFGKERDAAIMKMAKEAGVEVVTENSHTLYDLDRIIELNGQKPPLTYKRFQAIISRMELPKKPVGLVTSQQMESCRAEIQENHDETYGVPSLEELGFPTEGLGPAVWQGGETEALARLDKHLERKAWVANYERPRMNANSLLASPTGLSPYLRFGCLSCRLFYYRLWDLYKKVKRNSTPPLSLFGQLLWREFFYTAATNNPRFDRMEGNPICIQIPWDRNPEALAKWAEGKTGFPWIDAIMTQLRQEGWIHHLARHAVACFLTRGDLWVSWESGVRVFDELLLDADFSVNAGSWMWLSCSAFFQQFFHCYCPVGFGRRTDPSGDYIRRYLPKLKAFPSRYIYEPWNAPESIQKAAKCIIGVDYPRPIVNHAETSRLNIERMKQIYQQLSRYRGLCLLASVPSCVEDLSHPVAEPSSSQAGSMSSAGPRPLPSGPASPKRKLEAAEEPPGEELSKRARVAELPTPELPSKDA

aapk1_human PRKAA1 = aapk1_human PRKAA1 (UniProt Q13131)
Chain of aapk1_human PRKAA1 (Q13131 whole entry, looked up): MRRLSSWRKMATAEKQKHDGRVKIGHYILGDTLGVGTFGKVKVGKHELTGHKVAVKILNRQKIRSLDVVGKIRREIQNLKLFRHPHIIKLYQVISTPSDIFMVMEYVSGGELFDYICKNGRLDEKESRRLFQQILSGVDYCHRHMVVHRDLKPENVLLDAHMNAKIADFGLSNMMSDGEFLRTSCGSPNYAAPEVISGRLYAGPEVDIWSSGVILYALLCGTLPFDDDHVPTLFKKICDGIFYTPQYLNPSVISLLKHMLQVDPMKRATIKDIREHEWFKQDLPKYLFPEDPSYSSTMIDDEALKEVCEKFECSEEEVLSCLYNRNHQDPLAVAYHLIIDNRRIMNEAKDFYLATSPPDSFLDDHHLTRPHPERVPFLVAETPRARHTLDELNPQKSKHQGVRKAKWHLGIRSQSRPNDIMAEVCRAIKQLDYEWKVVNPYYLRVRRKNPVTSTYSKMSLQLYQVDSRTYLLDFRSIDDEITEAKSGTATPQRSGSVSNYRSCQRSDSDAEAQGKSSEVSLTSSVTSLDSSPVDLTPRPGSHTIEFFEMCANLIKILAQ

Chain of Zinc finger protein 24 (Homo sapiens), P17028 T85M (P17028 whole entry T85M): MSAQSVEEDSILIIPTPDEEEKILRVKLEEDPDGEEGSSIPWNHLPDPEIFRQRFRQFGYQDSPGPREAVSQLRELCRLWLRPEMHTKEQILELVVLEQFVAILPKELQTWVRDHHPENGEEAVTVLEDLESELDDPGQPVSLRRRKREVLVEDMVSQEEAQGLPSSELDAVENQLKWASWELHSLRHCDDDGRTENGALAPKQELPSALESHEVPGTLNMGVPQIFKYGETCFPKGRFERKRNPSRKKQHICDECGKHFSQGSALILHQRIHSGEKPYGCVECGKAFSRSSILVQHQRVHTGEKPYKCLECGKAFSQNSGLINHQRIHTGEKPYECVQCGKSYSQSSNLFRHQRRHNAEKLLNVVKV
Chain of zn446_human ZNF446 (Q9NWS9 whole entry): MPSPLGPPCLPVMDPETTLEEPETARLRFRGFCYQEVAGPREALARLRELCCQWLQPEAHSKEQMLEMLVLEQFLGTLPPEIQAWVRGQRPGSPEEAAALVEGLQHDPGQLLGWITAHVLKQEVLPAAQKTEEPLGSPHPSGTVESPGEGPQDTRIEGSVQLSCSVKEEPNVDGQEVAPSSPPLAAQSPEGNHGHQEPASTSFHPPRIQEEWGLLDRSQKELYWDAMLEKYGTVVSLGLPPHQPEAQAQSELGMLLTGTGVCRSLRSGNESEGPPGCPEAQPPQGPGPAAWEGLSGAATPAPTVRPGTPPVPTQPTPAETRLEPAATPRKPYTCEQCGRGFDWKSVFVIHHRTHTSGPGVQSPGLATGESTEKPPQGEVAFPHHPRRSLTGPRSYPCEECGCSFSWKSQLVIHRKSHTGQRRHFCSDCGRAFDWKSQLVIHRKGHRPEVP
Chain of aakb2_human PRKAB2 (O43741 whole entry): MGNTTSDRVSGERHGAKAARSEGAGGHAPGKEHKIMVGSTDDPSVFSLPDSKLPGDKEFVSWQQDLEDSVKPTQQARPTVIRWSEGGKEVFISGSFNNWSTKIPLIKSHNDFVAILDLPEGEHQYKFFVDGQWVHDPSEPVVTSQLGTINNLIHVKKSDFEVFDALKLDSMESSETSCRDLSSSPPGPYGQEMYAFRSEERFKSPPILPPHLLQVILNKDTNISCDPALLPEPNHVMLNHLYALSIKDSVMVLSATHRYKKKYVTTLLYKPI
Chain of zbt24_human ZBTB24 (O43167 whole entry): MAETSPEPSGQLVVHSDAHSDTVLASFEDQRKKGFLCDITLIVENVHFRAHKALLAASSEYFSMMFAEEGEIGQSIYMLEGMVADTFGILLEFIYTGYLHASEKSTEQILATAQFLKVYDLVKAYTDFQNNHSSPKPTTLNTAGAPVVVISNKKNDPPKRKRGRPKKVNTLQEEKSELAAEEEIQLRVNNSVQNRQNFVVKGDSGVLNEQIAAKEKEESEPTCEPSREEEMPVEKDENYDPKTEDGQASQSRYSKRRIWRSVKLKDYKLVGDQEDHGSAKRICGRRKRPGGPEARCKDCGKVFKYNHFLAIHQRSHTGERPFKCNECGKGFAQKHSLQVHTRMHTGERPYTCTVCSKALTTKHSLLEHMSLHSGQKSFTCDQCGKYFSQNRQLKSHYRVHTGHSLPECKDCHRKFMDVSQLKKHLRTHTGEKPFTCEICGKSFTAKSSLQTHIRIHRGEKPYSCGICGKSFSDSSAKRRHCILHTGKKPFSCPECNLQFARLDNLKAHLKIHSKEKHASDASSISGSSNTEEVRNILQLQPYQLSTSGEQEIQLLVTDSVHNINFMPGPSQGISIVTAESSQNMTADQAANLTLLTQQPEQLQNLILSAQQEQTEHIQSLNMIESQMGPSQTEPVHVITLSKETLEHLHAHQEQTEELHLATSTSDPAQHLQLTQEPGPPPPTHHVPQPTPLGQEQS
Chain of rbtn2_human LMO2 (P25791 whole entry): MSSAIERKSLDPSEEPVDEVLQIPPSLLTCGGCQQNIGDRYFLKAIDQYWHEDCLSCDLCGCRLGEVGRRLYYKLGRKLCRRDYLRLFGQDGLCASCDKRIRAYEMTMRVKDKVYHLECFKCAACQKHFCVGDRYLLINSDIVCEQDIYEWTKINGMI
Chain of trim1_human MID2 (Q9UJV3 whole entry): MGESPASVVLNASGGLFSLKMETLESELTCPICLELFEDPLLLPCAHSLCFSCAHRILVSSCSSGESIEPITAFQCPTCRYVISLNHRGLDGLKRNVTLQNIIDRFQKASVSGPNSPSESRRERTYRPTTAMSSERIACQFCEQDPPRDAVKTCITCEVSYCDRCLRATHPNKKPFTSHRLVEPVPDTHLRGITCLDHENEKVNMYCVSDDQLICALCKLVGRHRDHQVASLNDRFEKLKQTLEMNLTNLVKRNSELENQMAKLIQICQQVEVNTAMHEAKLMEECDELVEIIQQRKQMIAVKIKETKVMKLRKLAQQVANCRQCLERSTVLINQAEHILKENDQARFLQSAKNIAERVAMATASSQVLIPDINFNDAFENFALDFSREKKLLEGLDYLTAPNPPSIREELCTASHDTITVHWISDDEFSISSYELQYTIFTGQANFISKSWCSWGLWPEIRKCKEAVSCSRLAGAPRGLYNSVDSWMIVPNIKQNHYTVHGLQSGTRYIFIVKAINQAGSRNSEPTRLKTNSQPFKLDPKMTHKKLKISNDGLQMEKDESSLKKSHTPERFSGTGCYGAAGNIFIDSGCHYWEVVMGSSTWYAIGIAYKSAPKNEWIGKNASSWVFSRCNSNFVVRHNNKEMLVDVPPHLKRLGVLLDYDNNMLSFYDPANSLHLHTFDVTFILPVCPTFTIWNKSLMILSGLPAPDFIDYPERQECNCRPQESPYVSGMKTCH
Chain of dzip3_human DZIP3 (Q86Y13 whole entry): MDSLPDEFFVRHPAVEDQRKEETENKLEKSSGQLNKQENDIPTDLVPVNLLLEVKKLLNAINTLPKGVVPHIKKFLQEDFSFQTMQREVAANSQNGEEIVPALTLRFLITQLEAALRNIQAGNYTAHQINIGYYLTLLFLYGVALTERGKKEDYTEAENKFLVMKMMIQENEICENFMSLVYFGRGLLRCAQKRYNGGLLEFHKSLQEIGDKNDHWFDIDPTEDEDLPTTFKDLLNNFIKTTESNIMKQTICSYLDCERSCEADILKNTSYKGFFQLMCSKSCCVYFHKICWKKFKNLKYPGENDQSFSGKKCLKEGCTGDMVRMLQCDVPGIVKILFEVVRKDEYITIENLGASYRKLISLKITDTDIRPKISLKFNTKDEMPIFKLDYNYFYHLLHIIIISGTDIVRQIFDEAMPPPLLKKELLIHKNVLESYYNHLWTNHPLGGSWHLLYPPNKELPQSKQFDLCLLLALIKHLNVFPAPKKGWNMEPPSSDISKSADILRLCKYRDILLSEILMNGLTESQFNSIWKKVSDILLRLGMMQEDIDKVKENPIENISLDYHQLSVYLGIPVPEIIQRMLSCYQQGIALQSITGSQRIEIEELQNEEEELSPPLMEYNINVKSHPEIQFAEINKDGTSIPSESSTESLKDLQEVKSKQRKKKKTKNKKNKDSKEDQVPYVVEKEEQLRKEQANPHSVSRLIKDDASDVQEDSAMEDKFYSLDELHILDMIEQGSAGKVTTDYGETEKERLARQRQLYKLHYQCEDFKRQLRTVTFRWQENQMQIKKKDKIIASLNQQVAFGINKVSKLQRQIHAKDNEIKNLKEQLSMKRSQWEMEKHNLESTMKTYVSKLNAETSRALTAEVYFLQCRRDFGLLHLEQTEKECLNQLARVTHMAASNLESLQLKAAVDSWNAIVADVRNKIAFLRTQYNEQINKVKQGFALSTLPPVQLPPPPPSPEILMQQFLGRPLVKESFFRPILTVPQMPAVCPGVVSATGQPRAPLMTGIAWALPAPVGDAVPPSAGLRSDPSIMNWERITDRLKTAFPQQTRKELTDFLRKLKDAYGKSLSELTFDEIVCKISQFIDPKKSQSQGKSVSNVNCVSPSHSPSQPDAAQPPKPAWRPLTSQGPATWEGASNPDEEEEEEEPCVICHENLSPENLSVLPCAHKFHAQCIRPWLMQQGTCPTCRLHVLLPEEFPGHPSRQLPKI
Chain of Zinc finger and SCAN domain-containing protein 16 (Homo sapiens), Q9H4T2 R137Q (Q9H4T2 whole entry R137Q, the tested form may be a part): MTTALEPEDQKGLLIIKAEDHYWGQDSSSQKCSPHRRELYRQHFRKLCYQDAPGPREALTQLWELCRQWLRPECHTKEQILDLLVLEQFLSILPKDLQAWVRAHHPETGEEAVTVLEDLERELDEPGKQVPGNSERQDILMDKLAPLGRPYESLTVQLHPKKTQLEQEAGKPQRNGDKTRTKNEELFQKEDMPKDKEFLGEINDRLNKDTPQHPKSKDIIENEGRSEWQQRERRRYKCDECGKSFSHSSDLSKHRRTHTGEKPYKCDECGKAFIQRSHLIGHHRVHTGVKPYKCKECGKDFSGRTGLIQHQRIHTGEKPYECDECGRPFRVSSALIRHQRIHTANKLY

Zinc finger and SCAN domain-containing protein 16 (Homo sapiens), Q9H4T2 R137Q
effect of a mutation on the interaction (zn446_human ZNF446 [1]): with no effect

Krueppel-like factor 15 (Homo sapiens), Q9UIH9 A199V
effect of a mutation on the interaction (aakb2_human PRKAB2): with no effect | effect of a mutation on the interaction (zbt24_human ZBTB24): with no effect

Small ribosomal subunit protein eS7 (Homo sapiens) (from UniProt P62081) R106Q
effect of a mutation on the interaction (zbt14_human ZBTB14): with no effect

Actin, cytoplasmic 1 (Homo sapiens) (from UniProt P60709) E364K
effect of a mutation on the interaction (cof2_human CFL2): with no effect | effect of a mutation on the interaction (dest_human DSTN): disrupting interaction strength | effect of a mutation on the interaction (ntaq1_human NTAQ1): disrupting interaction strength

Zinc finger protein 24 (Homo sapiens), P17028 T85M
effect of a mutation on the interaction (zn446_human ZNF446 [2]): with no effect | effect of a mutation on the interaction (trim1_human MID2): with no effect | effect of a mutation on the interaction (dzip3_human DZIP3): with no effect | effect of a mutation on the interaction (rbtn2_human LMO2): with no effect

Surfactant protein C (Homo sapiens) (from UniProt P11686) R167Q
effect of a mutation on the interaction (tmm79_human TMEM79): with no effect | effect of a mutation on the interaction (cxcl9_human CXCL9): with no effect

C-terminal-binding protein 1 (Homo sapiens) (from UniProt Q13363) A436T
effect of a mutation on the interaction (hxb5_human HOXB5): with no effect | effect of a mutation on the interaction (ctbp2_human CTBP2): with no effect | effect of a mutation on the interaction (cry2_human CRY2): with no effect | effect of a mutation on the interaction (aapk1_human PRKAA1): with no effect
